Laboratory results reported in patent US20030021774A1.
Substitutions are numbered along the chain they refer to.

What was measured:
Assay in all cases: cell-based or functional assay
[1] = target: T1, SAVINASE, subtilisin derived from Bacillus clausii (previously Bacillus lentus NCIB 10309) (Bacillus clausii (previously Bacillus lentus NCIB 10309)) (UniProt P29600)
T1 sequence (looked up): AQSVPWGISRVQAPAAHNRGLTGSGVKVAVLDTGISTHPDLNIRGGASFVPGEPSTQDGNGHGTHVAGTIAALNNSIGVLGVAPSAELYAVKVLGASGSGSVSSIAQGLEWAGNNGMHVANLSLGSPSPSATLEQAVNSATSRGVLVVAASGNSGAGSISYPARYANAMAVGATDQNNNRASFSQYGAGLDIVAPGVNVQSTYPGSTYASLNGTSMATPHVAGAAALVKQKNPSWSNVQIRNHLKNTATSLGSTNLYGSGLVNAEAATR

[2] = target: T2, Sub.Novo(Y217L), mutant of subtilisin from Bacillus amyloliquefaciens (Bacillus amyloliquefaciens) (UniProt P00782)
T2 sequence (looked up): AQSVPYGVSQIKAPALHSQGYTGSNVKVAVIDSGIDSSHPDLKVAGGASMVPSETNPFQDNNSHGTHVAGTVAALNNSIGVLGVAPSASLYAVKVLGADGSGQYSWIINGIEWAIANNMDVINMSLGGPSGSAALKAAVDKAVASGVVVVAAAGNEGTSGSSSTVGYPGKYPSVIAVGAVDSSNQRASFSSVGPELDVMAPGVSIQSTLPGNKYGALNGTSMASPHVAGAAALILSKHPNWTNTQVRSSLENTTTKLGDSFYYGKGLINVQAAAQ

[3] = target: T3, Sub.Novo, subtilisin from Bacillus amyloliquefaciens (Bacillus amyloliquefaciens) (UniProt P00782)
T3 sequence (looked up): T2 sequence (looked up) with L217Y

[4] = target: protease derived from Acremonium chrysogenum ATCC 48272 (Acremonium chrysogenum ATCC 48272)
Sequence of protease derived from Acremonium chrysogenum ATCC 48272 (Acremonium chrysogenum ATCC 48272) (P29118 other isoform, or with tags, fused parts or gaps): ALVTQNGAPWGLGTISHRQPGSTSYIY

[5] = target: protease derived from Aspergillus sp. CBS 102448
[6] = target: protease derived from Bacillus alcalophilus NCIMB 10438 (Bacillus alcalophilus NCIMB 10438)
[7] = target: protease derived from Bacillus sp. NCIMB 40484 (Bacillus sp. NCIMB 40484)
[8] = target: protease derived from Fusarium oxysporum IFO 4471 (Fusarium oxysporum IFO 4471)
[9] = target: protease derived from Paecilomyces lilacinus CBS 102449 (Paecilomyces lilacinus CBS 102449)

Measured: Residual activity (%) on Suc-AAPF-pNA after incubation with SSI

B1: Streptomyces Subtilisin Inhibitor (SSI) (protein, UniProt P01006 32-144, looked up)
chain: DAPSALYAPSALVLTVGKGVSATTAAPERAVTLTCAPGPSGTHPAAGSACADLAAVGGDLNALTRGEDVMCPMVYDPVLLTVDGVWQGKRVSYERVFSNECEMNAHGSSVFAF
0%: [1] | [2] | [6]
4.3%: [7]
0.1%: all other assays above
